From US20240400654A1 come the findings set out here.

Positions count from the first letter of the chain named. Numbers in names are those of the source. Where “and” joins values, the source holds several entries; their conditions need not be identical. Identical values can stand only once.

B1: KB001 mouse Fab VL S57R (Fab, V domains shown)
VH: EVQLKQSGPGLVAPSQSLSITCTVSGFSLSIYSVHWVRQPPGKGLEWLGMIWGGGSSDYNSALKSRLSISKDNSKSQVFLKMNSLQTDDTAMYYCARNGNFYAMDYWGQGTSVTVSS
VL: QIVLTQSPAIMSASLGERVTMTCTASSSVSSSFLHWYQQKPGSSPQLWIYSTSNLARGVPARFSGSGSGTSYSLTISSMEAEDAATYYCHQYHHSPYIYTFGGGTKLEIK
B2: KB001 mouse Fab VL T24I (Fab, V domains shown)
VH: B1 VH
VL: B1 VL with T24I, R57S
B3: KB001 mouse Fab VL T100W (Fab, V domains shown)
VH: B1 VH
VL: B1 VL with R57S, T100W
B4: KB001 mouse Fab VL T100Y (Fab, V domains shown)
VH: B1 VH
VL: B1 VL with R57S, T100Y
B5: KB001 mouse Fab VL S57G (Fab, V domains shown)
VH: B1 VH
VL: B1 VL with R57G
B6: KB001 mouse Fab VL T100S (Fab, V domains shown)
VH: B1 VH
VL: B1 VL with R57S, T100S
B7: KB001 mouse Fab VL S57Q (Fab, V domains shown)
VH: B1 VH
VL: B1 VL with R57Q
B8: KB001 mouse Fab VL S57T (Fab, V domains shown)
VH: B1 VH
VL: B1 VL with R57T
B9: KB001 mouse Fab VL A25V (Fab, V domains shown)
VH: B1 VH
VL: B1 VL with A25V, R57S
B10: KB001 mouse Fab VL S95Q (Fab, V domains shown)
VH: B1 VH
VL: B1 VL with R57S, S95Q
B11: KB001 mouse Fab VL S26T (Fab, V domains shown)
VH: B1 VH
VL: B1 VL with S26T, R57S
B12: KB001 mouse Fab VL T100F (Fab, V domains shown)
VH: B1 VH
VL: B1 VL with R57S, T100F
B13: KB001 mouse Fab VL T24N/G67D (Fab, V domains shown)
VH: B1 VH
VL: B1 VL with T24N, R57S, G67D
B14: KB001 mouse Fab VL T100H (Fab, V domains shown)
VH: B1 VH
VL: B1 VL with R57S, T100H
B15: KB001 mouse Fab VL T100R (Fab, V domains shown)
VH: B1 VH
VL: B1 VL with R57S, T100R
B16: KB001 mouse Fab VL H90W (Fab, V domains shown)
VH: B1 VH
VL: B1 VL with R57S, H90W
B17: KB001 mouse Fab VL Y97E (Fab, V domains shown)
VH: B1 VH
VL: B1 VL with R57S, Y97E
B18: KB001 mouse Fab VL T24N (Fab, V domains shown)
VH: B1 VH
VL: B1 VL with T24N, R57S
B19: KB001 mouse Fab VL T24L (Fab, V domains shown)
VH: B1 VH
VL: B1 VL with T24L, R57S
B20: KB001 mouse Fab VL S57P (Fab, V domains shown)
VH: B1 VH
VL: B1 VL with R57P
B21: KB001 mouse Fab VL A25P (Fab, V domains shown)
VH: B1 VH
VL: B1 VL with A25P, R57S
B22: KB001 mouse Fab VL T24K/R18S (Fab, V domains shown)
VH: B1 VH
VL: B1 VL with R18S, T24K, R57S
B23: KB001 mouse Fab VL T100L (Fab, V domains shown)
VH: B1 VH
VL: B1 VL with R57S, T100L
B24: KB001 mouse Fab VL T24M (Fab, V domains shown)
VH: B1 VH
VL: B1 VL with T24M, R57S
B25: KB001 mouse Fab VL T24G (Fab, V domains shown)
VH: B1 VH
VL: B1 VL with T24G, R57S
B26: KB001 mouse Fab VL T100M (Fab, V domains shown)
VH: B1 VH
VL: B1 VL with R57S, T100M
B27: KB001 mouse Fab VL A25Y (Fab, V domains shown)
VH: B1 VH
VL: B1 VL with A25Y, R57S
B28: KB001 mouse Fab VL T24Q (Fab, V domains shown)
VH: B1 VH
VL: B1 VL with T24Q, R57S
B29: KB001 mouse Fab VL A25E (Fab, V domains shown)
VH: B1 VH
VL: B1 VL with A25E, R57S
B30: KB001 mouse Fab VL T100E (Fab, V domains shown)
VH: B1 VH
VL: B1 VL with R57S, T100E
B31: KB001 mouse Fab VL T100G (Fab, V domains shown)
VH: B1 VH
VL: B1 VL with R57S, T100G
B32: KB001 mouse Fab VL S26G (Fab, V domains shown)
VH: B1 VH
VL: B1 VL with S26G, R57S
B33: KB001 mouse Fab VL S57E (Fab, V domains shown)
VH: B1 VH
VL: B1 VL with R57E
B34: KB001 mouse Fab VL T100Q (Fab, V domains shown)
VH: B1 VH
VL: B1 VL with R57S, T100Q
B35: KB001 mouse Fab VL T24A (Fab, V domains shown)
VH: B1 VH
VL: B1 VL with T24A, R57S
B36: KB001 mouse Fab VL A25G (Fab, V domains shown)
VH: B1 VH
VL: B1 VL with A25G, R57S
B37: KB001 mouse Fab VL S26P (Fab, V domains shown)
VH: B1 VH
VL: B1 VL with S26P, R57S

The assay deals with HRgpA-6H (Porphyromonas gingivalis) (UniProt P28784). The experiment in a line: ELISA, coated HRgpA-6H.
Sequence of UniProt P28784 (P28784 228-860 limits assumed): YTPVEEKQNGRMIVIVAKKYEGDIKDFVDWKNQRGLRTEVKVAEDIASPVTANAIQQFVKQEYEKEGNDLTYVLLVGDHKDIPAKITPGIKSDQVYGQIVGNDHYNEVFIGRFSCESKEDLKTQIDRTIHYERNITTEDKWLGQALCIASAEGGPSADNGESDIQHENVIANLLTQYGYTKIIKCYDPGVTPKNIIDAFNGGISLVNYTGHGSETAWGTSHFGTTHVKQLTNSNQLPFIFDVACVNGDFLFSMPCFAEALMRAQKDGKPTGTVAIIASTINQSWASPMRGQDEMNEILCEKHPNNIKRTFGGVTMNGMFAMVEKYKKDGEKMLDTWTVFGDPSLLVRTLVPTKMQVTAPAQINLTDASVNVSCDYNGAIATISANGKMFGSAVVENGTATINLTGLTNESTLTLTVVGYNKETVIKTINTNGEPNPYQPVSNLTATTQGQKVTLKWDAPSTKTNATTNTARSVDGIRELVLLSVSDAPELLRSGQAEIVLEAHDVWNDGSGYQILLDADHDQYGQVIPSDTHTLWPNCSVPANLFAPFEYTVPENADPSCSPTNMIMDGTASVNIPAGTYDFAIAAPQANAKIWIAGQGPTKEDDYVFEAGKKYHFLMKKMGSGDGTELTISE
Regarding B1, the OD450 nm was 0.845 and 0.849; the Ratio OD(Variant)/OD(WT) turned out to be 1.04.
Take B2: the OD450 nm amounted to 0.741 and the Ratio OD(Variant)/OD(WT) was 0.964.
For B3 the same measures were 0.585 and 1.12.
For B4 the same measures were 0.546 and 1.04.
Turning to B5, the OD450 nm is 0.873 and 0.825; the Ratio OD(Variant)/OD(WT) is 1.07 and 1.01.
For B6, the OD450 nm is 0.602 and 0.664 and 0.625; the Ratio OD(Variant)/OD(WT) was 1.15 and 1.27 and 1.19.
Regarding B7, the OD450 nm is 0.858 and 0.838; the Ratio OD(Variant)/OD(WT) was 1.05 and 1.03.
As for B8, the OD450 nm turned out to be 0.843 and the Ratio OD(Variant)/OD(WT) was determined as 1.03.
For B9 the same measures were 0.768 and 0.981.
Take B10: the OD450 nm was 0.931 and 0.936 and 0.927; the Ratio OD(Variant)/OD(WT) is 1.01 (2×) and 1.02.
Turning to B11, the OD450 nm stood at 0.761 and the Ratio OD(Variant)/OD(WT) was 0.972.
On to B12, for which the OD450 nm came to 0.552 and the Ratio OD(Variant)/OD(WT) is 1.05.
For B13 the same measures were 0.755 and 0.982.
B14: the OD450 nm was 0.597 and 0.631; the Ratio OD(Variant)/OD(WT) was 1.14 and 1.21.
B15: the OD450 nm was 0.616 and the Ratio OD(Variant)/OD(WT) was 1.18.
For B16, in that order: 0.913 and 1.06.
On to B17, for which the OD450 nm stood at 0.793 and the Ratio OD(Variant)/OD(WT) turned out to be 1.
On to B18, for which the OD450 nm is 0.715 and 0.8; the Ratio OD(Variant)/OD(WT) is 0.93 and 1.04.
Take B19: the OD450 nm is 0.753 and 0.752 and 0.667; the Ratio OD(Variant)/OD(WT) was 0.979 and 0.978 and 0.867.
For B20, the OD450 nm worked out at 0.858 and the Ratio OD(Variant)/OD(WT) worked out at 1.05.
On to B21, for which the OD450 nm was 0.742 and 0.766 and 0.749; the Ratio OD(Variant)/OD(WT) was 0.948 and 0.978 and 0.957.
As for B22, the OD450 nm came out at 0.761 and the Ratio OD(Variant)/OD(WT) was 0.99.
As to B23, the OD450 nm is 0.587 and 0.566; the Ratio OD(Variant)/OD(WT) is 1.12 and 1.08.
Turning to B24, the OD450 nm was 0.75 and 0.797; the Ratio OD(Variant)/OD(WT) is 0.975 and 1.04.
Take B25: the OD450 nm is 0.686 and 0.735; the Ratio OD(Variant)/OD(WT) is 0.892 and 0.956.
With B26, the OD450 nm came out at 0.589 and the Ratio OD(Variant)/OD(WT) amounted to 1.12.
Regarding B27, the OD450 nm was 0.755 and 0.757; the Ratio OD(Variant)/OD(WT) is 0.964 and 0.967.
With B28, the OD450 nm came out at 0.765 and the Ratio OD(Variant)/OD(WT) amounted to 0.995.
For B29 the same measures were 0.655 and 0.837.
As for B30, the OD450 nm is 0.613 and 0.621 and 0.674; the Ratio OD(Variant)/OD(WT) was 1.17 and 1.19 and 1.29.
As to B31, the OD450 nm was 0.603 and 0.597; the Ratio OD(Variant)/OD(WT) was 1.15 and 1.14.
In the case of B32, the OD450 nm is 0.73 and the Ratio OD(Variant)/OD(WT) stood at 0.932.
For B33, in that order: 0.843 and 1.03.
With B34, the OD450 nm is 0.586 and 0.596 and 0.604; the Ratio OD(Variant)/OD(WT) is 1.12 and 1.14 and 1.15.
Consider B35, for which the OD450 nm was 0.757 and the Ratio OD(Variant)/OD(WT) came to 0.984.
As to B36, the OD450 nm was 0.668 and 0.699 and 0.673; the Ratio OD(Variant)/OD(WT) was 0.853 and 0.893 and 0.86.
On to B37, for which the OD450 nm was 0.644 and 0.677; the Ratio OD(Variant)/OD(WT) is 0.822 and 0.865.
